Experimental data: US20030180744, “High affinity oligonucleotide ligands to growth factors” (GILEAD SCIENCES, INC., published 2003)

How the values were obtained:
[1] = biological target: T1, KGF (rat) (Rattus norvegicus, UniProt Q02195 Q02195:32-194); experiment: cell_activity; Balb/MK DNA synthesis; conditions: tags: QED Advanced Research Technologies; pseudoknot
T1 sequence: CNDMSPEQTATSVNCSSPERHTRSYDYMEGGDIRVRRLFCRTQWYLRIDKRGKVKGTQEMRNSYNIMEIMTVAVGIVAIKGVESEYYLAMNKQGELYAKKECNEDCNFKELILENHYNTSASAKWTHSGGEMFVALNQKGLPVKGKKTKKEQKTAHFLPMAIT
Procedure: (§3) Balb/MK cells grown in Low Ca⁺⁺ EMEM with 10% FCS (dialyzed and heat inactivated) and 5 ng/ml rhEGF were trypsinized and resuspended in Low Ca⁺⁺ EMEM with 1% FCS (dialyzed and heat inactivated) and 0.5 ng/ml rhEGF and plated on 96 well fibronectin coated culture plates at 4-6×10⁴ cells per well in 100 μl total volume. Following overnight growth, the medium was replaced with Low Ca⁺⁺ EMEM without FCS or rhEGF and serum starved for about 30 hrs. […] Following over-night incubation, ³H-thymidine was added at 0.2 μCi/well and incubation continued for an additional 7-8 hrs. The extent of ³H-thymidine incorporation was determined by TCA precipitation and filtration through GFC filter disks.

[2] = biological target: T2, KGF (hKGF) (Homo sapiens, UniProt P21781 P21781:32-194); experiment: cell_activity; Balb/MK mitogenic assay; conditions: tags: Upstate Biotechnology; pseudoknot
T2 sequence: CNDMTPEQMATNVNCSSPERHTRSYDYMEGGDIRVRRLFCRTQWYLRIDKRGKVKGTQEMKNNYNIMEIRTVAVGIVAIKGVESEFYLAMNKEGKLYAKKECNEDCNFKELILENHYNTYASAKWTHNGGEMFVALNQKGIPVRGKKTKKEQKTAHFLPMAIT
Procedure: as §3

[3] = biological target: T1, KGF (rat); experiment: filter; high affinity component; Kd2 70.0 nM; conditions: tags: QED Advanced Research Technologies; label: 32P; pseudoknot (predicted)
[4] = biological target: T3, TGFβ1 (Homo sapiens, UniProt P01137 P01137:279-390); experiment: filter; specificity control; random RNA 10.4 nM; conditions: tags: Genentech; biotinylated version used in bead assay; chain copies: 2; label: 32P; pseudoknot (predicted)
T3 sequence (P01137 279-390, one chain of several): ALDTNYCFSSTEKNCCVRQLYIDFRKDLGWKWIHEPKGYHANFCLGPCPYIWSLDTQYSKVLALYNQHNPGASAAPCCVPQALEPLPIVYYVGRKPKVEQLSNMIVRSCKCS

[5] = biological target: EGF (Homo sapiens, UniProt P01133 P01133:971-1023); experiment: filter; specificity control; random RNA 2000 nM; conditions: tags: Upstate Biotechnology; label: 32P; pseudoknot (predicted)
Sequence of EGF (P01133 971-1023, one chain of several): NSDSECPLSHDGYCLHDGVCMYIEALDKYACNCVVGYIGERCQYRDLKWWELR

[6] = biological target: T4, PDGF-AB (Homo sapiens, UniProt P04085;P01127 P04085:87-211,P01127:82-190); experiment: filter; specificity control; random RNA 22.0 nM; conditions: tags: R&D Systems, E. coli; label: 32P; pseudoknot (predicted)
T4 sequence (P01127 82-190, chain 2 of 2, other chains not shown): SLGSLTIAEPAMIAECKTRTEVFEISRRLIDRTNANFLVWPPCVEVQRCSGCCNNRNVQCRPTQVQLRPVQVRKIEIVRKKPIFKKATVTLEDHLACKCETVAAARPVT

[7] = biological target: bFGF (Homo sapiens, UniProt P09038 P09038:143-288); experiment: filter; specificity control; random RNA 0.0375 and 10.3 nM; conditions: tags: R&D Systems; label: 32P; pseudoknot (predicted)
Sequence of bFGF (P09038 143-288, one chain of several): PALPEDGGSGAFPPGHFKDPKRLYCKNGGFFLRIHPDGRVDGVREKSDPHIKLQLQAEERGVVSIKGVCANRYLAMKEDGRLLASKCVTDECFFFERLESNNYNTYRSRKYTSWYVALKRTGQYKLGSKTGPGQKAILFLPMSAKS

[8] = biological target: T2, KGF (hKGF); experiment: competition; PC-3 cells; 10.6 nM partial on NIH3T3/FGFR-2; conditions: tags: Upstate Biotechnology
Procedure: (§1) PC-3 cells were plated in 24-well plates at about 10⁵ cells per well. Following growth for […], the cells were serum starved for 24 hours, washed two times with 500 μl of cold DPBS, and then incubated with 500 μl binding buffer (BB1; DPBS, 0.5 mM MgCl₂, 0.2% BSA. 0.02% sodium azide) containing various concentrations of ¹²⁵I-labeled KGF ranging from 0 to 0.8 nM. Following 3-3.5 hour incubation at 4° C., the binding mixes were aspirated and the well-adhered cells were washed two times with 1 ml BB1 and once with 1 ml BB1 supplemented with 0.5M NaCl. The remaining bound labeled hKGF was solubilized in 600 μl 0.5% SDS/0.1M NaOH and counted in a gamma counter (Beckmann). Nonspecific binding was determined in the presence of 100 fold molar excess of unlabeled hKGF. For competition assays, the labeled hKGF was kept constant at […], and varying concentrations of competitor molecules were included in the binding reactions ranging from 0-1,000 nM. Binding curves were fitted to the equation: […]
(§2) A subset of these ligands was tested on the NIH3T3/FGFR-2. In determining the Ki values, it was assumed that 3T3 cells have 500,000 binding sites per cell and PC-3 cells have 5,000 binding sites per cell.

[9] = biological target: T2, KGF (hKGF); experiment: competition; PC-3 cells; conditions: tags: Upstate Biotechnology
Procedure: as §1, §2

[10] = biological target: T2, KGF (hKGF); experiment: filter; DPBS, 37 C; PC-3 Ki […] nM; conditions: tags: Upstate Biotechnology; label: 32P
[11] = biological target: T3, TGFβ1; experiment: filter; 37 C; cell IC50 210 nM; conditions: tags: Genentech; biotinylated version used in bead assay; chain copies: 2
[12] = biological target: T3, TGFβ1; experiment: cell_activity; conditions: tags: Genentech or R&D Systems; chain copies: 2
[13] = biological target: T3, TGFβ1; experiment: filter; 37 C; cell IC50 124 nM; conditions: tags: Genentech; biotinylated version used in bead assay; chain copies: 2
[14] = biological target: T2, KGF (hKGF); experiment: competition; PC-3 cells; 6.8 nM on NIH3T3/FGFR-2; 830 pM Balb/MK; conditions: tags: Upstate Biotechnology; pseudoknot
Procedure: as §1, §2

[15] = biological target: T2, KGF (hKGF); experiment: filter; biphasic, high affinity 37%; Kd2 3.25 nM; PC-3 Ki 0.16 nM; conditions: tags: Upstate Biotechnology; label: 32P; pseudoknot (predicted)
[16] = biological target: T2, KGF (hKGF); experiment: filter; biphasic, high affinity 28%; conditions: tags: Upstate Biotechnology; label: 32P
[17] = biological target: T2, KGF (hKGF); experiment: competition; PC-3 cells; 2.7 nM on NIH3T3/FGFR-2; 92 pM Balb/MK; conditions: tags: Upstate Biotechnology; pseudoknot
Procedure: as §1, §2

[18] = biological target: T2, KGF (hKGF); experiment: filter; biphasic, high affinity 25-44%; text p221 gives 0.3-3 pM and 2-10 nM; PC-3 Ki 0.2 nM; conditions: tags: Upstate Biotechnology; label: 32P; pseudoknot (predicted)
[19] = biological target: T2, KGF (hKGF); experiment: filter; biphasic, high affinity 33%; conditions: tags: Upstate Biotechnology; label: 32P
[20] = biological target: T2, KGF (hKGF); experiment: filter; second value 8.70 nM; conditions: tags: Upstate Biotechnology; label: 32P
[21] = biological target: T2, KGF (hKGF); experiment: filter; biphasic, high affinity 43%; Kd2 2.55 nM; conditions: tags: Upstate Biotechnology; label: 32P
[22] = biological target: T3, TGFβ1; experiment: filter; 3' boundary experiment; conditions: tags: Genentech or R&D Systems; chain copies: 2
[23] = biological target: T4, PDGF-AB; experiment: filter; substitution pattern compatible with high affinity; conditions: tags: R&D Systems, E. coli; chain copies: A/B chain dimer; three-way helix junction
[24] = biological target: T4, PDGF-AB; experiment: efficient photo-crosslinking at 308 nm, to Phe84 of B chain; conditions: tags: R&D Systems, E. coli; chain copies: A/B chain dimer
[25] = biological target: T5, bFGF (Example 20) (UniProt P09038 P09038:143-288); experiment: parent SELEX ligand
T5 sequence (P09038 143-288, one chain of several): as above

[26] = biological target: T5, bFGF (Example 20); experiment: truncated ligand from deletion analysis
[27] = biological target: T2, KGF (hKGF); experiment: filter; equimolar halves; high -, low -; conditions: tags: Upstate Biotechnology
Procedure: In an effort to identify shorter KGF ligands that retained binding, the binding activity of various deletions of the shortest truncate of ligand 14F, namely 14F3′T were tested. Deletions were tested in all the structural elements of the proposed pseudoknot structure. RNA transcripts containing 2′F pyrimidines and 2′OH purines were obtained by in vitro transcription using synthetic DNA templates. The activity of each ligand is shown by scoring for both the high (H) and low (L) affinity component of the 14F3′T binding curve with +(active) or −(not active). Truncates T35 and T36 represent two complementary halves of 14F3′T molecule and were additionally tested as an equimolar mixture. The structural elements of the proposed pseudoknot structure are separated by (1) and are indicated by symbols S1 (stem 1), S2 (stem 2), L1 (loop 1) and L3 (loop 3). The proposed pseudoknot structure for 14F3′T is a non-H-type pseudoknot and lacks L2 (loop 2). The complementary sequences forming S1 (S1 and S1′) and S2 (S2 and S2′) are marked by single and double underlines respectfully. In the tabulated sequences, deleted bases were replaced with periods (.). […] Deletions in loop 3 (L3), however, were tolerated as long as one copy of the RRYY box remained intact. The shortest ligand that retained activity is T22 which is a 43-mer. […]

B1: 14F3'T (ssRNA)
RNA: GGGAGGACGAUGCGGUGGUCUCCCAAUUCUAAACUUUCUCCAUCGUAUC
modifications: 2'-F pyrimidines
Ki [1]: 1.8 nM
Ki [2]: 0.034 nM
Kd [3]: 0.0041 nM
Kd [4]: 98 nM
Kd [5]: 256 nM
Kd [6]: 50 nM
Kd [7]: 10 nM

B2: 14N (ssRNA)
RNA: GGGAGGACGAUGCGGUCCAGGGAUUGAAGUGUCGGGGUAGGAACAUAAAGGCGGCCAGACGACUCGCCCGA
modifications: 2'-NH2 pyrimidines
Ki [8]: 1.4 nM
IC50 [9]: 6 nM
Kd [10]: 0.44 nM

B3: lib8-9 (ssRNA)
RNA: GGGGGAGAACGCGGAUCCGCAAUCCCAGGCGCAUAGCUUCCGAGUAGACAGGAGGGAGGGGUGGAUGUGGCGUCUACUCGGCGUCGUGAAGCUUCGCUCUAGAUCUCCCUUUAGUGAGGGUUA
modifications: 2'-NH2 pyrimidines
Kd [11]: 1.7 nM
IC50 [12]: 210 nM

B4: lib8-9* (ssRNA)
RNA: GGGGGAGAACGCGGAUCCGCAAUCCCAGGCGCAUAGCUUCCGAGUAGACAGGAGGGAGGGGUGGAUGUGGCGUCUACUCGGCGUCGUGAAGCUUCGCUCUAGAUCUCCCUUUAGUGAGGGUUA
modifications: 2'-NH2 U, 2'-F C
Kd [13]: 2.8 nM

B5: 6F (ssRNA)
RNA: GGGAGGACGAUGCGGGAUCCUUUGUGGGCUCUUGUUGACCCCCUCGUUGUCCCCCCCAGACGACUCGCCCGA
modifications: 2'-F pyrimidines
Ki [14]: 0.16 nM
IC50 ([9]; pseudoknot): 4 nM
Kd [15]: 0.05 nM

B6: 13F (ssRNA)
RNA: GGGAGGACGAUGCGGCACCUUAGACCUGUCCUCCAAGCGUGAGUUGCUGUGGCCCAGACGACUCGCCCGA
modifications: 2'-F pyrimidines
IC50 [9]: 30 nM
Kd [16]: 0.03 nM

B7: 14F (ssRNA)
RNA: GGGAGGACGAUGCGGUGGUCUCCCAAUUCUAAACUUUCUCCAUCGUAUCUGGGCCAGACGACUCGCCCGA
modifications: 2'-F pyrimidines
Ki [17]: 0.2 nM
IC50 ([9]; pseudoknot): 10 nM
Kd [18]: 0.0134 nM

B8: 15F (ssRNA)
RNA: GGGAGGACGAUGCGGUCAUGGUGUCUUUCCACAGCUCUUCCCAUGAUCGCCCGGCCAGACGACUCGCCCGA
modifications: 2'-F pyrimidines
IC50 [9]: 20 nM
Kd [19]: 0.07 nM

B9: 20F (ssRNA)
RNA: GGGAGGACGAUGCGGAGUAUUCCAGCCUGGAUUCAUAGUCAGUGCUCUCCGUGCCCAGACGACUCGCCCGA
modifications: 2'-F pyrimidines
Kd [20]: 2.05 nM

B10: 26F (ssRNA)
RNA: GGGAGGACGAUGCGGUCAAGCUUAACAGUCUGGCAAUGGCCAUUAUGGCGCCCCAGACGACUCGCCCGA
modifications: 2'-F pyrimidines
Kd [21]: 0.23 nM

B11: lib4-32 boundary (ssRNA)
RNA: GGGGGAGAACGCGGAUCCGGCAACCCCAGGCGCAUAGCUUCCGAGUAGACAGGCGGGAGGGGUGGAUGUGGCGUCACG
modifications: modified pyrimidines
binding result [22]: binds

B12: 36t 2'-OMe/2'-F (mixed)
mixed: CAGGCUACGGCACGTAGAGCAUCACCATGATCCUG
modifications: 2'-OMe C8,C11,C25,C26,G9,G10,G17,G19,G35,A12,A24,A27,U34; 2'-F U6,U22,C23,C32,C33; 3'-3' idT
binding result [23]: binds

B13: 20t-I4 (ssDNA)
DNA: TGGGAGGGCGCGTTCTTCGTGGTTACTTTTAGTCCCG
modifications: 5-iodo-dU at 24
binding result [24]: binds

B14: 21A (ssRNA)
RNA: GGGAGACAAGAAUAACGCUCAAGUAGACUAAUGUGUGGAAGACAGCGGGUGGUUCGACAGGAGGCUCACAACAGGC
modifications: 2'-NH2 pyrimidines
binding result [25]: binds

B15: 21A-t (ssRNA)
RNA: GGUGUGUGGAAGACAGCGGGUGGUUC
modifications: 2'-NH2 pyrimidines
binding result [26]: binds

B16: T35/T36 equimolar (ssRNA)
RNA 1: GGUGGUCUCCCAAUUCUAUUCUCCAUCGUAUC
RNA 2: GGGAGGACGAUG
modifications: 2'-F pyrimidines
binding result [27]: no binding
